The record followed here is PMC2156102.

In assay [1] the target is LexABD-Rac1G12V (fusion of the LexA DNA binding domain with Drosophila Rac1 G12V) (Drosophila) (UniProt P40792). Briefly: two-hybrid; same fusions; quantification of ß-galactosidase activity in liquid assays on total protein extracts, three measurements.
Assay [2] has as its target LexABD-Rac1G12V (fusion of the LexA DNA binding domain with Drosophila Rac1 G12V) (UniProt P40792). Briefly: yeast two-hybrid, ß-galactosidase activity in total protein extracts. To be noted: parent: est. 6.4; read off a plot.

Consider “GAL4AD-LbGAP (fusion of the GAL4 activation domain with LbGAP) (natural protein)”, for which, in assay [1], the ß-galactosidase activity relative to that of LbGAP with Rac2G12V was 2 fold.

Turning to “GAL4AD-LbGAP (fusion of the GAL4 activation domain with LbGAP) K111A”, the response (ß-Galactosidase units) in assay [2] came to 0.38.

For “GAL4AD-LbGAP (fusion of the GAL4 activation domain with LbGAP) R115A”, in assay [2], the response (ß-Galactosidase units) was 0.34.

As for “LbGAPR74A (GAL4 activation domain fusion) (natural protein)”, the fold lower interaction (ß-galactosidase activity) than wild-type LbGAP in assay [1] was 3 fold.

With “LbGAPS190A (GAL4 activation domain fusion) (natural protein)”, in assay [1], the fold lower interaction (ß-galactosidase activity) than wild-type LbGAP is 3 fold.
